Reference: publication PMC7972811

How the values were obtained:
[1] = target: SARS-CoV-2 spike S2P (ectodomain of the SARS-CoV-2 S trimer) (SARS-CoV-2, ancestral (P0DTC2 sequence))
[2] = target: SARS-CoV-2 spike S2P (ectodomain of the SARS-CoV-2 S trimer) (SARS-CoV-2, ancestral (P0DTC2 sequence)); assay: SPR

Substance: 2-15 IgG with the paratope somatic hypermutation Y32F (light chain) reverted to germline (antibody)
- pseudovirus neutralization potency, fold reduction against 2-15 IgG [1]: 42 fold
- fold reduction of binding affinity against 2-15 IgG [2]: 12 fold
